{"source": "paper PMC7948739", "about": "(The Journal of Biological Chemistry, 2020)", "proteins": {"B1": {"name": "soluble DEC-205 ectodomain (ECD), residues 1-1664 (domain or fragment, human, UniProt O60449-1 28-1664, looked up)", "chain": "SGRAANDPFTIVHGNTGKCIKPVYGWIVADDCDETEDKLWKWVSQHRLFHLHSQKCLGLDITKSVNELRMFSCDSSAMLWWKCEHHSLYGAARYRLALKDGHGTAISNASDVWKKGGSEESLCDQPYHEIYTRDGNSYGRPCEFPFLIDGTWHHDCILDEDHSGPWCATTLNYEYDRKWGICLKPENGCEDNWEKNEQFGSCYQFNTQTALSWKEAYVSCQNQGADLLSINSAAELTYLKEKEGIAKIFWIGLNQLYSARGWEWSDHKPLNFLNWDPDRPSAPTIGGSSCARMDAESGLWQSFSCEAQLPYVCRKPLNNTVELTDVWTYSDTRCDAGWLPNNGFCYLLVNESNSWDKAHAKCKAFSSDLISIHSLADVEVVVTKLHNEDIKEEVWIGLKNINIPTLFQWSDGTEVTLTYWDENEPNVPYNKTPNCVSYLGELGQWKVQSCEEKLKYVCKRKGEKLNDASSDKMCPPDEGWKRHGETCYKIYEDEVPFGTNCNLTITSRFEQEYLNDLMKKYDKSLRKYFWTGLRDVDSCGEYNWATVGGRRRAVTFSNWNFLEPASPGGCVAMSTGKSVGKWEVKDCRSFKALSICKKMSGPLGPEEASPKPDDPCPEGWQSFPASLSCYKVFHAERIVRKRNWEEAERFCQALGAHLSSFSHVDEIKEFLHFLTDQFSGQHWLWIGLNKRSPDLQGSWQWSDRTPVSTIIMPNEFQQDYDIRDCAAVKVFHRPWRRGWHFYDDREFIYLRPFACDTKLEWVCQIPKGRTPKTPDWYNPDRAGIHGPPLIIEGSEYWFVADLHLNYEEAVLYCASNHSFLATITSFVGLKAIKNKIANISGDGQKWWIRISEWPIDDHFTYSRYPWHRFPVTFGEECLYMSAKTWLIDLGKPTDCSTKLPFICEKYNVSSLEKYSPDSAAKVQCSEQWIPFQNKCFLKIKPVSLTFSQASDTCHSYGGTLPSVLSQIEQDFITSLLPDMEATLWIGLRWTAYEKINKWTDNRELTYSNFHPLLVSGRLRIPENFFEEESRYHCALILNLQKSPFTGTWNFTSCSERHFVSLCQKYSEVKSRQTLQNASETVKYLNNLYKIIPKTLTWHSAKRECLKSNMQLVSITDPYQQAFLSVQALLHNSSLWIGLFSQDDELNFGWSDGKRLHFSRWAETNGQLEDCVVLDTDGFWKTVDCNDNQPGAICYYSGNETEKEVKPVDSVKCPSPVLNTPWIPFQNCCYNFIITKNRHMATTQDEVHTKCQKLNPKSHILSIRDEKENNFVLEQLLYFNYMASWVMLGITYRNKSLMWFDKTPLSYTHWRAGRPTIKNEKFLAGLSTDGFWDIQTFKVIEEAVYFHQHSILACKIEMVDYKEEYNTTLPQFMPYEDGIYSVIQKKVTWYEALNMCSQSGGHLASVHNQNGQLFLEDIVKRDGFPLWVGLSSHDGSESSFEWSDGSTFDYIPWKGQTSPGNCVLLDPKGTWKHEKCNSVKDGAICYKPTKSKKLSRLTYSSRCPAAKENGSRWIQYKGHCYKSDQALHSFSEAKKLCSKHDHSATIVSIKDEDENKFVSRLMRENNNITMRVWLGLSQHSVDQSWSWLDGSEVTFVKWENKSKSGVGRCSMLIASNETWKKVECEHGFGRVVCKVPLG", "notes": "signal peptide in the construct; Monomer at pH 6.0, tetramer at pH 8.0; In both reconstructions only R30 to E1383 (CysR to CTLD8) could be built; CTLD9 and CTLD10 are invisible; also called CD205; source: HEK293S, transient transfection, secreted, purified (FLAG resin, size exclusion)"}}, "key": {"[1]": {"target": "the molecule itself", "test": "SEC-MALS; DEC-205 ECD, 50 ul at 1 mg ml^-1, Superdex 200 5/150, TBS (10 mM Tris-HCl pH 8.0, 150 mM NaCl)"}, "[2]": {"target": "the molecule itself", "test": "AUC; sedimentation velocity, DEC-205 ECD 0.2 mg ml^-1, BIS-TRIS buffer pH 6.0, 150 mM NaCl, 20 °C, 37,000 RPM"}, "[3]": {"target": "the molecule itself", "test": "AUC; sedimentation velocity, DEC-205 ECD 0.2 mg ml^-1, TBS pH 8.0, 150 mM NaCl, 20 °C, 37,000 RPM"}}}
{"protein": "B1", "values": [{"measurement": "stoichiometry N", "setting": "[1]", "result": 4}, {"measurement": "stoichiometry N", "setting": "[2]", "result": 2}, {"measurement": "stoichiometry N", "setting": "[3]", "result": 6}]}
